Drawing on article PMC2367452, “HOXA13 Is Essential for Placental Vascular Patterning and Labyrinth Endothelial Specification”, this text covers Kd for two molecules.

In data set [1] the target is T1, HOXA13 DNA-binding domain peptide (A13-DBD) (UniProt Q62424 320-386). The data set is described as follows: fluorescence anisotropy; abstract gives range 27-42 nM; FP: 1 nM fluorescein-labeled hairpin, 0-200 nM HOXA13-DBD, 15 C, buffer per ref 71 (not given); EMSA: Promega Gel Shift Binding System. The settings on record: protein: recombinant, label: fluorescein, CCCCCCC-region loop.

Data set [2] concerns the target T1, HOXA13 DNA-binding domain peptide …. Nature of the data set: fluorescence anisotropy; legend says affinity ablated; titrated only to 200 nM; FP: 1 nM fluorescein-labeled hairpin, 0-200 nM HOXA13-DBD, 15 C, buffer per ref 71 (not given); EMSA: Promega Gel Shift Binding System. The settings on record: protein: recombinant, label: fluorescein, 14 bp stem, CCCCC loop. For orientation: Polarisation of emitted light reports the rotation of a fluorescent probe.

T1 sequence (Q62424 320-386): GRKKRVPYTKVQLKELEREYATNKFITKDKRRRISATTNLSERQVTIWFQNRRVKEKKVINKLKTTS

Consider CTTATTATTAAAGGCCCCCCCTTTAATAATAAG (structured_DNA) [Foxf1 hairpin], for which the Kd in data set [1] was determined as 48 ± 4 nM.
In the case of TGACTGACTGACTGCCCCCCAGTCAGTCAGTCA (structured_DNA) [TGAC control hairpin], in data set [2], the Kd worked out at 250 ± 22 nM.

The Kd is the free concentration of one partner at which half of the binding sites on the other are occupied at equilibrium, for simple one-to-one binding.
